Reference: paper PMC9065035, “Structural basis for the synthesis of the core 1 structure by C1GalT1” (Nature Communications, 2022)
Ends that are not written are not given here. * marks the point of attachment. αGalNAc = CC(=O)N[C@@H]1[C@@H](O)[C@@H](O)[C@@H](CO)O[C@@H]1*

B1: P7 (YADT*GPF) glycopeptide (peptide)
peptide: YADT(αGalNAc)GPF-NH2
notes: designed acceptor glycopeptide; Made on Rink Amide resin, so a C-terminal amide is to be expected; source: synthetic peptide (solid-phase, Rink Amide MBHA resin, HPLC purified)
B2: DmC1GalT1^S73-Q388 (Drosophila melanogaster C1GalT1, residues S73-Q388) (enzyme)
chain: not shown
modifications: N-glycans trimmed with Endo-H
notes: C1GalT1 of Drosophila melanogaster, residues S73-Q388; Homodimer by SEC and in the crystal; also called truncated version of DmC1GalT1; DmC1GalT1-His
B3: P4 (PAAT*GPY) glycopeptide (peptide)
peptide: PAAT(αGalNAc)GPY-NH2
notes: as for B1
B4: APDT*RP glycopeptide (MUC1 tandem repeat epitope with alpha-GalNAc on Thr) (peptide)
peptide: APDT(αGalNAc)RP-NH2
modifications: N-terminus assumed
SMILES: CC(=O)N[C@H]1[C@@H](O[C@H](C)[C@H](NC(=O)[C@H](CC(=O)O)NC(=O)[C@@H]2CCCN2C(=O)[C@H](C)N)C(=O)N[C@@H](CCCNC(=N)N)C(=O)N2CCC[C@H]2C(N)=O)O[C@H](CO)[C@H](O)[C@@H]1O
notes: source: synthetic peptide (Fmoc solid phase, Rink Amide MBHA resin, HPLC)
B5: DmC1GalT1^S73-Q388 (Drosophila melanogaster C1GalT1, residues S73-Q388) (enzyme)
chain: not shown
modifications: N-glycans trimmed with Endoglycosidase-H (expressed with kifunensine)
notes: C1GalT1 (core 1 synthase) of Drosophila melanogaster, residues S73-Q388; Expressed with the honey bee mellitin secretion signal in front (pFastBac1-mellitin-DmC1GalT1-6His); two molecules in the asymmetric unit arranged as a homodimer; also called truncated version of DmC1GalT1; mellitin-DmC1GalT1-6His; source: High Five insect cells (baculovirus), secreted, purified (His-Trap, Endo-H, MBP-Trap, …)
B6: P4 glycopeptide PAAT*GPY (GalNAc on Thr) (peptide)
peptide: PAAT(αGalNAc)GPY-NH2
notes: Tied to the name P4 by the residues that the text names for P4 (Pro1, Ala2, Ala3, Thr4, Gly5, Tyr7); Made on Rink Amide MBHA resin, so probably a C-terminal amide (surmised); source: synthetic peptide (solid-phase synthesis, HPLC purified)
B7: P7 glycopeptide YADT*GPF (GalNAc on Thr) (peptide)
peptide: YADT(αGalNAc)GPF-NH2
notes: Asp at -1; Tied to the name P7 by the text (Asp at -1; ITC was done with P4 and P7 only besides APDT*RP); Made on Rink Amide MBHA resin, so probably a C-terminal amide (surmised); source: synthetic peptide (solid-phase synthesis, HPLC purified)

Columns and labels:
[1] = target: T1, DmC1GalT1^T43-Q388 (Drosophila melanogaster C1GalT1, residues T43-Q388) (Drosophila melanogaster); experiment: ITC; in the absence of UDP: 2 mM glycopeptide titrated into 60 µM DmC1GalT1^T43-Q388; 20 °C; 25 mM TRIS pH 7.5, 150 mM NaCl, 1 mM MnCl2; one-site model; duplicate; conditions: both partners purified
T1 construct: N-glycosylated (lower eukaryotes' C1GalT1 are N-glycosylated); The pHLSec vector (AgeI/KpnI) may leave a few vector residues at both ends (surmise); the SEC was done with the S73-Q388 construct; also called core 1/T-synthase; DmC1GalT1-His; source: HEK293, transfected (pHLSec), secreted, purified (His-Trap, Superdex 75)

[2] = target: T1, DmC1GalT1^T43-Q388 (Drosophila …); experiment: ITC; under an excess of UDP: 2 mM (glyco)peptide titrated into DmC1GalT1^T43-Q388 (60 µM for APDT*RP and APDTRP, 50 µM for P4/P7); 20 °C; 25 mM TRIS pH 7.5, 150 mM NaCl, 1 mM UDP, 1 mM MnCl2; one-site model; duplicate; conditions: both partners purified
[3] = target: the molecule itself; experiment: crystal structure; DmC1GalT1^S73-Q388 (15 mg/mL) with 5 mM UDP, 2 mM MnCl2 and 5 mM APDT*RP; space group P21; 2.40 Å
[4] = target: the molecule itself; experiment: SEC; size exclusion chromatography of DmC1GalT1^S73-Q388 against protein markers of known molecular weight
DmC1GalT1^T43-Q388 R152A = DmC1GalT1^T43-Q388 R152A (Drosophila melanogaster, UniProt Q7K237 43-388, R152A); experiment: cell-based or functional assay
DmC1GalT1^T43-Q388 Y213A = DmC1GalT1^T43-Q388 Y213A (Drosophila melanogaster, UniProt Q7K237 43-388, Y213A); experiment: cell-based or functional assay
DmC1GalT1^T43-Q388 Y325A = DmC1GalT1^T43-Q388 Y325A (Drosophila melanogaster, UniProt Q7K237 43-388, Y325A); experiment: cell-based or functional assay
[5] = target: B5; experiment: crystal structure; 15 mg/mL DmC1GalT1^S73-Q388, 5 mM UDP, 2 mM MnCl2, 5 mM APDT*RP; space group P2_(1); 2.40 Å; conditions: both partners purified
[6] = target: the molecule itself; experiment: as above
[7] = target: T2, Drosophila melanogaster C1GalT1, residues T43-Q388 (DmC1GalT1^T43-Q388) (Drosophila melanogaster, UniProt Q7K237 43-388); experiment: ITC; 2 mM glycopeptide titrated into the enzyme (60 uM for APDT*RP, 50 uM for P4/P7); excess of UDP: 25 mM TRIS pH 7.5, 150 mM NaCl, 1 mM UDP, 1 mM MnCl2; 20 °C; one-site model; duplicate; conditions: both partners purified
T2 construct: N-glycosylated when made in HEK293; also called core 1/T-synthase; source: HEK293, transfected (pHLSec), secreted, purified (His-Trap, Superdex 75)

[8] = target: T2, Drosophila melanogaster C1GalT1, …; experiment: ITC; 2 mM glycopeptide titrated into 60 uM enzyme; no UDP: 25 mM TRIS pH 7.5, 150 mM NaCl, 1 mM MnCl2; 20 °C; one-site model; duplicate; conditions: both partners purified

B1
Kd [1]: 37.1 µM
stoichiometry N [1]: 0.65
Kd [2]: 60 µM
stoichiometry N [2]: 1.5

B2
stoichiometry N [3]: 2
stoichiometry N [4]: 2

B3
Kd [1]: 41 µM
stoichiometry N [1]: 0.98
Kd [2]: 60.4 µM
stoichiometry N [2]: 0.88

B4
glycosyltransferase activity relative to WT (UDP-Glo, 500 nM mutant, 500 μM UDP-Gal, 500 μM APDT*RP) (DmC1GalT1^T43-Q388 R152A): 15 fold decrease
glycosyltransferase activity relative to WT (UDP-Glo, 500 nM mutant, 500 μM UDP-Gal, 500 μM APDT*RP) (DmC1GalT1^T43-Q388 Y213A): 25 fold decrease
glycosyltransferase activity relative to WT (UDP-Glo, 500 nM mutant, 500 μM UDP-Gal, 500 μM APDT*RP) (DmC1GalT1^T43-Q388 Y325A): 25 fold decrease
binding result [5]: binds

B5
stoichiometry N [6]: 2

B6
Kd [7]: 60.3 µM
Kd [8]: 41 µM

B7
Kd [7]: 60 µM
Kd [8]: 37.1 µM
